The target in one experiment is T1, hiR2-FL-WT-FLAG (human, UniProt Q6PJF5 1-856).
T1 construct: on MEF-DKO cells
T1 sequence: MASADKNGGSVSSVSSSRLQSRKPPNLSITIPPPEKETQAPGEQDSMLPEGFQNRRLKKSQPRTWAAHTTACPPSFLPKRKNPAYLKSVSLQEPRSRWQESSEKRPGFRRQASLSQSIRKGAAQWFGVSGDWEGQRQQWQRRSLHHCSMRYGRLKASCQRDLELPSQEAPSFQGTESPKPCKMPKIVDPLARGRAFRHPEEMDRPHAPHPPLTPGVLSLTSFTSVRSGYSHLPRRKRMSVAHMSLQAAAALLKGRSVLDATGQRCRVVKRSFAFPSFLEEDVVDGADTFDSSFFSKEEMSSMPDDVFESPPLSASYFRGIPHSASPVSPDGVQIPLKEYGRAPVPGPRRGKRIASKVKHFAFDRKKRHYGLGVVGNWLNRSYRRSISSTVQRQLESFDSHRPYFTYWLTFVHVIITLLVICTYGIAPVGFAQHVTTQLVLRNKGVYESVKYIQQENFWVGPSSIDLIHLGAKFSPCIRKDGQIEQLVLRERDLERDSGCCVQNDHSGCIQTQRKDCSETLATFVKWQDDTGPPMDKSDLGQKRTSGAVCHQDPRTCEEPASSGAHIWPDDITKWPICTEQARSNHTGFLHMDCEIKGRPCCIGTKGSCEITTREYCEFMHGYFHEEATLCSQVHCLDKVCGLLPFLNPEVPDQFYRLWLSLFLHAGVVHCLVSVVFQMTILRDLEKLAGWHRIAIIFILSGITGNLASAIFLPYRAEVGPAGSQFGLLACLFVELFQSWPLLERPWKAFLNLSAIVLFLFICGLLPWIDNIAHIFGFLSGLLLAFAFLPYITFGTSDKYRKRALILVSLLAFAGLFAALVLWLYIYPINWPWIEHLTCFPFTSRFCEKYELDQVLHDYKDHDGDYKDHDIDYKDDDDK
Briefly: FACS, MEF-DKO-hiR2-FL-WT-FLAG cells, 3 µg/ml. Here is the method: In brief, immortalized MEF-DKO-EV control cells, MEF-DKO-hiR2-FL-WT-FLAG cells and MEF-DKO-miR2-FL-WT-FLAG cells were harvested with 10 mM EDTA in PBS, washed and resuspended in FACS buffer (PBS, 3% FBS, 0.05% sodium azide), and seeded in Nunc U-bottom 96-well plates (Thermo Fisher Scientific, USA) at approximately 3×10⁵ cells per well. To pellet cells and remove supernatants, the plates were centrifuged at 1,500 rpm and 4° C. for 3 minutes. For primary staining, cells were resuspended in 100 μl per well of either FACS buffer alone (controls), mouse monoclonal anti-FLAG IgG (Sigma-Aldrich, USA) at 3 μg/ml FACS buffer or the antibodies of the invention also at 3 μg/ml FACS buffer and incubated on ice for 1 hour. Afterwards, plates were centrifuged at 1,500 rpm and 4° C. for 3 minutes and washed twice with 200 μl per well of FACS buffer. For secondary staining, cells were spun down and resuspended in 100 μl per well of PE-conjugated goat anti-mouse IgG F(ab′)2 detection fragment (Dianova, Germany) diluted 1:100 in FACS buffer. Protected from light, the cell suspensions were incubated on ice for 1 hour. Plates were then centrifuged at 1,500 rpm and 4° C. for 3 minutes and washed three times with 200 μl per well of FACS buffer. Finally, cells were resuspended in 150 μl per well of FACS buffer and analyzed using a BD Accuri™ C6 Plus flow cytometer (Becton Dickinson, Germany).

The next experiment deals with T2, hiR2-FL-S537E-T7 (human, UniProt Q6PJF5 1-856).
T2 sequence: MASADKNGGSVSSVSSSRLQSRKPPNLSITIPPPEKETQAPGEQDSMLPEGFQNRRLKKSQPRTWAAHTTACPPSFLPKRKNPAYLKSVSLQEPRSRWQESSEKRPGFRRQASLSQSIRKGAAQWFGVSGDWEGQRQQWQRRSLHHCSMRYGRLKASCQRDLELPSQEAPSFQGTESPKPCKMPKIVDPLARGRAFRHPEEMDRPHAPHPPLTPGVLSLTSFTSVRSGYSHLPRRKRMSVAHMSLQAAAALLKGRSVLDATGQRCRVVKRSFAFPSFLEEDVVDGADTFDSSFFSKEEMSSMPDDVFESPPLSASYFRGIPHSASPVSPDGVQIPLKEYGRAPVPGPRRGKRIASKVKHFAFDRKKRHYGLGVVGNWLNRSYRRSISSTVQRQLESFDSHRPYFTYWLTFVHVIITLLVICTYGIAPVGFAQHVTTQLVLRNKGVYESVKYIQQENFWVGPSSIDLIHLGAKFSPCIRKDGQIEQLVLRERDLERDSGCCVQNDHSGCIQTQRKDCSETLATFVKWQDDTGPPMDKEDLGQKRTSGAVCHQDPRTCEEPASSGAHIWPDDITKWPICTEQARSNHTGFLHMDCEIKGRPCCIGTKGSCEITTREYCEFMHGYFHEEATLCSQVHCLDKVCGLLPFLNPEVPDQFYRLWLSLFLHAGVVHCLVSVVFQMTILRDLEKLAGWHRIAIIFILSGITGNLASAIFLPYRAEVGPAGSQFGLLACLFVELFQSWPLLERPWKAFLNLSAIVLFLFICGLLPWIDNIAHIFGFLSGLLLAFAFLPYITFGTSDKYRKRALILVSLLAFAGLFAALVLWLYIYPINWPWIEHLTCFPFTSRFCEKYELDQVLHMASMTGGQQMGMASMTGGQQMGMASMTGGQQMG
Briefly: FACS on MEF-DKO cells.

B1: antibody 47 (antibody, V domains shown)
VH: QVQLQQSGAELVRPGTSVKVSCKASGYAFTNYLIEWVKQRPGQGLEWIGVINPGSGFTNYNEKFKGKAILNADKSSSTAYMQLISLTSEDSAVYFCARDLKRAMDHWGQGTSVTVSS
VL: DIQMTQSPASQSASLGESVTITCLASQTIGTWLAWYQQKPGKSPQLLIHAATSLADGVPSRFSGSGSGTKFSFKISSLQAEDFVSYYCQQIYSSPYTFGGGTKLEIK
notes: mouse IgG, kappa light chain; also called clone #47
With B1, the binding result in the experiment with hiR2-FL-WT-FLAG is recorded as “binds”.

B2: antibody 51 (antibody, V domains shown)
VH: QVQLQQSGAELVKPGASVKISCKASGYTFSNYWMNWVKQRPGKGLEWIGQIYPGDGDTKYNGKFKNKATLTADKSSSTAYMQFSSLTSEDSAVYFCARGDLVFVYWGLGTLVTVSA
VL: DVQITQSPSYLAVSPGETITINCRASKNIRKYLAWYQEKPGKTNKLLIYSGSTSQSGVPSRFSGSGSGTDFTLTISSLEPEDFAMYYCQQHNEYPYTFGGGTKLEIK
notes: mouse IgG, kappa light chain; also called clone #51
On to B2, for which the binding result with hiR2-FL-WT-FLAG is “binds”.

B3: antibody 5 (antibody, V domains shown)
VH: QVTLKESGPGILQPSQTLSLTCSFSGFSLSTFGMGVGWIRQPSGKGLEWLAHIWWDDEKYYNSALKSRLTISKATSKNQAFLKIANVDTADTATYYCARISNYGSNYWYFNVWGTGTTVTVSS
VL: QVVLTQSPALMSASPGEKVTMTCSAGSSVSCMYWYQQKPGSSPRVLIYDTSNLASGVPARFTGSGSGTSYSLTISRMEAEDAASYYCQQWNSYPLTFGAGTKLELK
notes: mouse IgG, kappa light chain; also called clone #5; purified antibody 5
In the case of B3, the binding result in the experiment with hiR2-FL-S537E-T7 is given as “no binding (tested: 3 µg/ml)”.

B4: antibody 34 (antibody, V domains shown)
VH: QVTLKESGPGILQPSQTLSLTCSFSGFSLSTFSLGVGWIRQSSGKGLEWLAHIWWDDEKYYNPALKSRLTISKDTSKNQVFLKIANVDAADTATYYCARAYYSKSYYALDYWGQGTSVTVSS
VL: DIQMTQSPSSLSASLGERVSLTCRASQEISGYLSWLQQKPDGTIKRLIYAASTLDSGVPKRFSGSRSGSDYSLAISSLESEDFADYYCLQYANFPFTFGSGTKLEIK
notes: mouse IgG, kappa light chain; also called clone #34; purified antibody 34
With B4, the binding result with hiR2-FL-S537E-T7 is “no binding (tested: 3 µg/ml)”.

Source of the values: patent US20240287172A1 (SCIRHOM, published 2024).
